Experimental findings from patent publication US20230061973A1 (LARIMAR THERAPEUTICS, published 2023) are described below.

In assay [1] the target is exemplary TAT frataxin fusion molecule (HIV-1) (UniProt Q16595). Nature of the assay: immunopurification from plasma on antibody-coated magnetic beads, trypsin digest, LC/MS of peptide ….
Assay [2] has the same target. The assay can be described thus: PK sandwich ELISA in human plasma, antibody as capture, HRP anti-frataxin mAb detection.
For assay [3] the target is unchanged. The assay can be described thus: bridging (ADA) assay in human plasma: antibody titrated with biotinylated and sulfo-tagged TAT frataxin fusion molecule, streptavidin plate, ECL read-out.

Take “polyclonal anti-TAT E8332 polyclonal antibody”: the LC/MS signal after immunopurification, fold higher than with anti-TAT antibody ab63957 in assay [1] is 5 fold higher. In assay [2], this substance returned a Mean OD at plasma conc. 0.400 ng/mL of 0.075 OD, a Mean OD at plasma conc. 0.800 ng/mL of 0.113 OD, a Mean OD at plasma conc. 1.60 ng/mL of 0.165 OD and a Mean OD at plasma conc. 3.20 ng/mL of 0.322 OD. For the same substance, in assay [2], the Mean OD at plasma conc. 6.40 ng/mL stood at 0.631 OD, the Mean OD at plasma conc. 12.8 ng/mL amounted to 1.08 OD, the Mean OD at plasma conc. 25.6 ng/mL turned out to be 1.83 OD and the Mean OD at plasma conc. 51.2 ng/mL was 3.1 OD. Moreover, in assay [2], the S/N at plasma conc. 0.400 ng/mL was 1.5, the S/N at plasma conc. 0.800 ng/mL came to 2.3, the S/N at plasma conc. 1.60 ng/mL came to 3.4 and the S/N at plasma conc. 3.20 ng/mL was 6.6. In assay [2], this substance had a S/N at plasma conc. 6.40 ng/mL of 12.9, a S/N at plasma conc. 12.8 ng/mL of 22.1, a S/N at plasma conc. 25.6 ng/mL of 37.3 and a S/N at plasma conc. 51.2 ng/mL of 63.3. For the same substance, the 50% effective concentration (EC50 (read off the curve)) in assay [3] amounted to 20 µg/mL.

Broadly, the EC50 (read off the curve) is the concentration needed to bring the measured effect to its halfway point.
